# Assay results taken from IntAct's records for PubMed 31515488.
# B1: Tektin-4 (Homo sapiens), Q8WW24 (parent)
# chain: MAQTVPPCELPCKEYDVARNTGAYTSSGLATASFRTSKYLLEEWFQNCYARYHQAFADRDQSERQRHESQQLATETQALAQRTQQDSTRTVGERLQDTHSWKSELQREMEALAAETNLLLAQKQRLERALDATEVPFSITTDNLQCRERREHPNLVRDHVETELLKEAELIRNIQELLKRTIMQAVSQIRLNREHKETCEMDWSDKMEAYNIDETCGRHHSQSTEVQAHPYSTTFQESASTPETRAKFTQDNLCRAQRERLASANLRVLVDCILRDTSEDLRLQCDAVNLAFGRRCEELEDARYKLHHHLHKTLREITDQEHNVAALKQAIKDKEAPLHVAQTRLYLRSHRPNMELCRDAAQFRLLSEVEELNMSLTALREKLLEAEQSLRNLEDIHMSLEKDIAAMTNSLFIDRQKCMAHRTRYPTILQLAGYQ
# B2: Zinc finger and BTB domain-containing protein 9 (Homo sapiens), Q96C00 (parent)
# chain: METPTPLPPVPASPTCNPAPRTIQIEFPQHSSSLLESLNRHRLEGKFCDVSLLVQGRELRAHKAVLAAASPYFHDKLLLGDAPRLTLPSVIEADAFEGLLQLIYSGRLRLPLDALPAHLLVASGLQMWQVVDQCSEILRELETSGGGISARGGNSYHALLSTTSSTGGWCIRSSPFQTPVQSSASTESPASTESPVGGEGSELGEVLQIQVEEEEEEEEDDDDEDQGSATLSQTPQPQRVSGVFPRPHGPHPLPMTATPRKLPEGESAPLELPAPPALPPKIFYIKQEPFEPKEEISGSGTQPGGAKEETKVFSGGDTEGNGELGFLLPSGPGPTSGGGGPSWKPVDLHGNEILSGGGGPGGAGQAVHGPVKLGGTPPADGKRFGCLCGKRFAVKPKRDRHIMLTFSLRPFGCGICNKRFKLKHHLTEHMKTHAGALHACPHCGRRFRVHACFLRHRDLCKGQGWATAHWTYK
# partner: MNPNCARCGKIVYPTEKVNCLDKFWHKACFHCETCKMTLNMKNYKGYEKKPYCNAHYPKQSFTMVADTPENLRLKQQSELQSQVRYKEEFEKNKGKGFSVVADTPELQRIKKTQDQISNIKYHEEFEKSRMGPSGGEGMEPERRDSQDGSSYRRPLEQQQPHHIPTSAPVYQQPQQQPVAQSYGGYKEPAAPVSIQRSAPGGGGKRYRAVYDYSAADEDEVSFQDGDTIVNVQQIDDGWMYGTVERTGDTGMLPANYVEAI
# B3: Angiomotin (Homo sapiens), Q4VCS5 (parent)
# chain: MRNSEEQPSGGTTVLQRLLQEQLRYGNPSENRSLLAIHQQATGNGPPFPSGSGNPGPQSDVLSPQDHHQQLVAHAARQEPQGQEIQSENLIMEKQLSPRMQNNEELPTYEEAKVQSQYFRGQQHASVGAAFYVTGVTNQKMRTEGRPSVQRLNPGKMHQDEGLRDLKQGHVRSLSERLMQMSLATSGVKAHPPVTSAPLSPPQPNDLYKNPTSSSEFYKAQGPLPNQHSLKGMEHRGPPPEYPFKGMPPQSVVCKPQEPGHFYSEHRLNQPGRTEGQLMRYQHPPEYGAARPAQDISLPLSARNSQPHSPTSSLTSGGSLPLLQSPPSTRLSPARHPLVPNQGDHSAHLPRPQQHFLPNQAHQGDHYRLSQPGLSQQQQQQQQQHHHHHHHQQQQQQQPQQQPGEAYSAMPRAQPSSASYQPVPADPFAIVSRAQQMVEILSDENRNLRQELEGCYEKVARLQKVETEIQRVSEAYENLVKSSSKREALEKAMRNKLEGEIRRMHDFNRDLRERLETANKQLAEKEYEGSEDTRKTISQLFAKNKESQREKEKLEAELATARSTNEDQRRHIEIRDQALSNAQAKVVKLEEELKKKQVYVDKVEKMQQALVQLQAACEKREQLEHRLRTRLERELESLRIQQRQGNCQPTNVSEYNAAALMELLREKEERILALEADMTKWEQKYLEENVMRHFALDAAATVAAQRDTTVISHSPNTSYDTALEARIQKEEEEILMANKRCLDMEGRIKTLHAQIIEKDAMIKVLQQRSRKEPSKTEQLSCMRPAKSLMSISNAGSGLLSHSSTLTGSPIMEEKRDDKSWKGSLGILLGGDYRAEYVPSTPSPVPPSTPLLSAHSKTGSRDCSTQTERGTESNKTAAVAPISVPAPVAAAATAAAITATAATITTTMVAAAPVAVAAAAAPAAAAAPSPATAAATAAAVSPAAAGQIPAAASVASAAAVAPSAAAAAAVQVAPAAPAPVPAPALVPVPAPAAAQASAPAQTQAPTSAPAVAPTPAPTPTPAVAQAEVPASPATGPGPHRLSIPSLTCNPDKTDGPVFHSNTLERKTPIQILGQEPDAEMVEYLI
# partner: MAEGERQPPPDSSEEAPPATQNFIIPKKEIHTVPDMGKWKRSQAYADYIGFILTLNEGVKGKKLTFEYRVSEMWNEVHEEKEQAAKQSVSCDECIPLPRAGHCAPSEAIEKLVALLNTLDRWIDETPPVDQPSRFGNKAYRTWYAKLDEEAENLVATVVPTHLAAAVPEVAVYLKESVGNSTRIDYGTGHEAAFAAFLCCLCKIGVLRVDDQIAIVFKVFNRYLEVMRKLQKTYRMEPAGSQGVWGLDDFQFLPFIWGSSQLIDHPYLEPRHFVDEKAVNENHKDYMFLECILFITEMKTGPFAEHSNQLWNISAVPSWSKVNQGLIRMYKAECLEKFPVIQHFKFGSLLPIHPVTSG
# B4: Protein transport protein (Homo sapiens), Q15437 (parent)
# chain: MATYLEFIQQNEERDGVRFSWNVWPSSRLEATRMVVPLACLLTPLKERPDLPPVQYEPVLCSRPTCKAVLNPLCQVDYRAKLWACNFCFQRNQFPPAYGGISEVNQPAELMPQFSTIEYVIQRGAQSPLIFLYVVDTCLEEDDLQALKESLQMSLSLLPPDALVGLITFGRMVQVHELSCEGISKSYVFRGTKDLTAKQIQDMLGLTKPAMPMQQARPAQPQEHPFASSRFLQPVHKIDMNLTDLLGELQRDPWPVTQGKRPLRSTGVALSIAVGLLEGTFPNTGARIMLFTGGPPTQGPGMVVGDELKIPIRSWHDIEKDNARFMKKATKHYEMLANRTAANGHCIDIYACALDQTGLLEMKCCANLTGGYMVMGDSFNTSLFKQTFQRIFTKDFNGDFRMAFGATLDVKTSRELKIAGAIGPCVSLNVKGPCVSENELGVGGTSQWKICGLDPTSTLGIYFEVVNQHNTPIPQGGRGAIQFVTHYQHSSTQRRIRVTTIARNWADVQSQLRHIEAAFDQEAAAVLMARLGVFRAESEEGPDVLRWLDRQLIRLCQKFGQYNKEDPTSFRLSDSFSLYPQFMFHLRRSPFLQVFNNSPDESSYYRHHFARQDLTQSLIMIQPILYSYSFHGPPEPVLLDSSSILADRILLMDTFFQIVIYLGETIAQWRKAGYQDMPEYENFKHLLQAPLDDAQEILQARFPMPRYINTEHGGSQARFLLSKVNPSQTHNNLYAWGQETGAPILTDDVSLQVFMDHLKKLAVSSAC
# partner: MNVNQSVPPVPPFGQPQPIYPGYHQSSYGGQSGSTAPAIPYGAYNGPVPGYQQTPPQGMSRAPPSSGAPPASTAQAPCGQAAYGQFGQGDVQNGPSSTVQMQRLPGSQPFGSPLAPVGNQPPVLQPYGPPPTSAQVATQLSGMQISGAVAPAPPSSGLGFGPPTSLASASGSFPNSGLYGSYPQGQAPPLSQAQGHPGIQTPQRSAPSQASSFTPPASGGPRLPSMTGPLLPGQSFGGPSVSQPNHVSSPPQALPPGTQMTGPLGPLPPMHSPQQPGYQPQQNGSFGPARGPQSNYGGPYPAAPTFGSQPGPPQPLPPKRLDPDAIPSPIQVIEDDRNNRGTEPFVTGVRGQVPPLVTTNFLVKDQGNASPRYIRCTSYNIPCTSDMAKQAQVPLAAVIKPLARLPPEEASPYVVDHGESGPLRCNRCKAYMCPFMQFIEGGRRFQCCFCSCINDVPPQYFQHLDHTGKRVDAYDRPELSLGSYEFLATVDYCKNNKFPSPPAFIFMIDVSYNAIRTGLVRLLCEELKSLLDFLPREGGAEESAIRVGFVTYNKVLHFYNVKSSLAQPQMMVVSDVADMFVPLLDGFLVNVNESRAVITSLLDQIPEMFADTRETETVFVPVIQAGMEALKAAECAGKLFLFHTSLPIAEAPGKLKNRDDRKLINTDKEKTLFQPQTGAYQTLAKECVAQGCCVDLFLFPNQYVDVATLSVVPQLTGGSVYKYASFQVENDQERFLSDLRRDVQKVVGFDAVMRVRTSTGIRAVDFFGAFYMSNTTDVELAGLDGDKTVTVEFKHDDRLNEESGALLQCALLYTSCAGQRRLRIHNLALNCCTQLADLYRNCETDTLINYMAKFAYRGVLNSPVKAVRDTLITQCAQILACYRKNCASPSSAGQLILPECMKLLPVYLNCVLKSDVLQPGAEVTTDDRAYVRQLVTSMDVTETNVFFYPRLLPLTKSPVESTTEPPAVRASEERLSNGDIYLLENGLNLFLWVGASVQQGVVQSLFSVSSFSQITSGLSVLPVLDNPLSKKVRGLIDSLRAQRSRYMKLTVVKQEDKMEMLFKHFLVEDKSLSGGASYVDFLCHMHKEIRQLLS
# B5: Mitochondrial fission 1 protein (Homo sapiens), Q9Y3D6 (parent)
# chain: MEAVLNELVSVEDLLKFEKKFQSEKAAGSVSKSTQFEYAWCLVRSKYNDDIRKGIVLLEELLPKGSKEEQRDYVFYLAVGNYRLKEYEKALKYVRGLLQTEPQNNQAKELERLIDKAMKKDGLVGMAIVGGMALGVAGLAGLIGLAVSKSKS
# partner: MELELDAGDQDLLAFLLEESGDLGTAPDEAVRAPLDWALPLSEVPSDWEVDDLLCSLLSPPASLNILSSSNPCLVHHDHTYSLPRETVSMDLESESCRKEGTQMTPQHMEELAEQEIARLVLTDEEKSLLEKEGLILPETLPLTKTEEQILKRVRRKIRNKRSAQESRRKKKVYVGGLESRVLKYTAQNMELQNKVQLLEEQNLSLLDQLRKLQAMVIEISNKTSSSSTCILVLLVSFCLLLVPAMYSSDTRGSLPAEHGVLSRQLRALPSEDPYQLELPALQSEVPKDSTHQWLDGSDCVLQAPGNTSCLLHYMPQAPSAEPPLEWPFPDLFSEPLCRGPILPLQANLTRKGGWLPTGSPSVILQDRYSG
# Variants of: B1
# Conditions: with atg5_human ATG5, Q9H1Y0
# atg5_human ATG5, Q9H1Y0, sequence (Q9H1Y0 whole entry): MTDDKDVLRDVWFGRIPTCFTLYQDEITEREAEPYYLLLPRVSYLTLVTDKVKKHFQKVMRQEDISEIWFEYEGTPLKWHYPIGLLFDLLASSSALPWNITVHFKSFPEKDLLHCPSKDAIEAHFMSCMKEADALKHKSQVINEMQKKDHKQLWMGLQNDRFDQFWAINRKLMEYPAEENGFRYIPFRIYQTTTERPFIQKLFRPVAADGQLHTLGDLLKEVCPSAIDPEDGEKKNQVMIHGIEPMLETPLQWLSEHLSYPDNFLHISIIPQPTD
row,Variant,effect of a mutation on the interaction
1,I404T,disrupting interaction strength
2,A80V,with no effect

# Variants of: B2
# Conditions: with lasp1_human LASP1, Q14847
row,Variant,effect of a mutation on the interaction
1,S173C,with no effect

# Variants of: B3
# Conditions: with ptpa_human PTPA
row,Variant,effect of a mutation on the interaction
1,T899A,with no effect

# Variants of: B4
# Conditions: with sc24c_human SEC24C
row,Variant,effect of a mutation on the interaction
1,V426I,with no effect

# Variants of: B5
# Conditions: with creb3_human CREB3, O43889
row,Variant,effect of a mutation on the interaction
1,V124M,with no effect
